Key:
[1] = system: NCoR1; test: Immunoprecipitation with anti-NCoR1 antibodies in 293T cells expressing Flag-sLZIP; assay type: binding; conditions: 10 nM RZD for 24 hours
Protocol: 293T cells were obtained and washed with cold PBS. The cells were re-suspended in an IP lysis buffer [25 mM of Tris-HCl (pH 7.4), 150 mM of NaCl, 1 mM of EDTA, 1% NP-40 and 5% glycerol, and a protease inhibitor]. A suspension was centrifuged at 16,000×g for 20 minutes at 4° C. Supernatants were collected and incubated with 0.5 μg of appropriate antibodies and 25 μl of protein A/G-agarose or a GST Sepharose 4B bead for 24 hours at 4° C. A protein complex was centrifuged at 1,000×g with a cold IP lysis buffer for 1 minute and washed five times. The final pellet was re-suspended in 50 μl of an SDS-sample buffer containing 5% β-mercaptoethanol and heated for 10 minutes at 100° C. A protein sample was isolated in SDS-PAGE (8 to 10%) and transferred to nitrocellulose membranes. Co-precipitated proteins were detected according to western blotting using specific antibodies.
For this purpose, 293T cells were transfected with GST-PPARγ2 and Flag-sLZIP and were treated or not treated with 10 nM of RZD for 24 hours. […] A protein complex was analyzed in SDS-PAGE, and immunoblotted with anti-GST and anti-Flag antibodies. […] The cell lysates were GST pull-down analyzed (FIG. 5C). […] The cell lysates were GST pull-down analyzed (FIG. 5D). […] A protein complex was analyzed in SDS-PAGE, and then immunoblotted with anti-NCoR1 and anti-Flag antibodies (FIG. 5E). […]

[2] = biological target: T1, PPARγ2 (Homo sapiens, UniProt P37231); test: FABP4 promoter luciferase analysis in preadipocytes from epididymal adipose tissues of sLZIP TG mice; assay type: cell-based, mouse; parameters: expressed in transfected cells; host or cells: primary preadipocytes from epididymal adipose tissue of human-sLZIP transgenic mice; conditions: adipocytes of sLZIP TG mice vs wild type mice, with or without 10 nM RZD
T1 sequence (P37231 1-505): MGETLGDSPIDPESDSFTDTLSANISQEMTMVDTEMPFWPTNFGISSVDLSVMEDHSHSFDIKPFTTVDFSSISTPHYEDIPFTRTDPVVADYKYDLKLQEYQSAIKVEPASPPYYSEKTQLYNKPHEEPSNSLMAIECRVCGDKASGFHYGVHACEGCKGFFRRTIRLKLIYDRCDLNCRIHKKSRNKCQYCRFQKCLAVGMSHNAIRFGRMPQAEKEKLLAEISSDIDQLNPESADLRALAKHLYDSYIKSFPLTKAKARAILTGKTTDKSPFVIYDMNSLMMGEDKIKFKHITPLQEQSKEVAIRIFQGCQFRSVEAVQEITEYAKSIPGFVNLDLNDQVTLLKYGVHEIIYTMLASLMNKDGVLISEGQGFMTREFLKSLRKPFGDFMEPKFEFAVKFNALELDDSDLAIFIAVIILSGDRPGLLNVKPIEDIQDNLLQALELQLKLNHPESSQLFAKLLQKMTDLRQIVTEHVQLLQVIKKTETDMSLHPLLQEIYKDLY
From the text: In order to generate human sLZIP transgenic (TG) mice, sLZIP genes were cloned into a pCMV-flag expression vector. The sLZIP TG mice were generated by Macrogen, Inc (Seoul, Korea). Transgenic founders were mated with wild type C57BL/6 mice to produce F1 heterozygotes. F1-F4 generations were genetically screened for transgenes at an age of 2 weeks old. The following two primers were used to amplify genomic DNA in order to identify wild type and TG mice: [NT] and 5'-[NT]3.' Adipocyte differentiation is a well-regulated procedure. PPARγ2 is a major regulator of adipogenesis, is highly expressed during adipocyte differentiation, and regulates expression of genes involved in adipogenesis. An effect of sLZIP on adipogenesis in vivo was examined. For this purpose, in order to produce human sLZIP transgenic mice, sLZIP genes were cloned in a pCMV-flag expression vector. The sLZIP TG mice were produced in Macrogen, Inc (Seoul, Korea) (FIG. 8A). Preadipocytes were isolated from epididymal adipose tissues of sLZIP TG mice. […] A promoter activity was measured according to luciferase analysis (FIG. 8B). […] Total RNA was extracted from the cells, and an mRNA expression level of mouse LZIPs was measured using RT-PCR analysis. […] Total RNA was isolated from the cells, and an mRNA expression level of mouse LZIPs was measured using RT-PCR (FIG. 9C) and real-time PCR (FIG. 9D).

B1: sLZIP: human small leucine-zipper protein, isoform of LZIP, 354 amino acids, no transmembrane domain; GenBank FJ263669, SEQ ID NO: 1 (protein, listed as Homo sapiens)
chain: MELELDAGDQDLLAFLLEESGDLGTAPDEAVRAPLDWALPLSEVPSDWEVDDLLCSLLSPPASLNILSSSNPCLVHHDHTYSLPRETVSMDLESESCRKEGTQMTPQHMEELAEQEIARLVLTDEEKSLLEKEGLILPETLPLTKTEEQILKRVRRKIRNKRSAQESRRKKKVYVGGLESRVLKYTAQNMELQNKVQLLEEQNLSLLDQLRKLQAMVIEISNKTSSSSMYSSDTRGSLPAEHGVLSRQLRALPSEDPYQLELPALQSEVPKDSTHQWLDGSDCVLQAPGNTSCLLHYMPQAPSAEPPLEWPFPDLFSEPLCRGPILPLQANLTRKGGWLPTGSPSVILQDRYSG
- interaction with NCoR1 (immunoprecipitation) [1]: NCoR1 was slightly dissociated from sLZIP
- transcriptional activity of PPARγ2 (luciferase) [2]: decreased in the adipocytes of the sLZIP TG mice more than in wild type mice

Source: US10058586B2, “Use of human small leucine zipper protein in adipocyte differentiation procedure” (Korea University Research and Business Foundation, priority 2013, dated 2018)
